Results published in US20030009023A1 (US Dept. of Health and Human Services, published 2003).

B1: bovine Frzb (other)
chain: AACEPVRIPLCKSLPWNMTKMPNHLHHSTQANAILAIEQFEGLLGTHCSPDLLFFLCAMYAPICTIDFQHEPIKPCKSVCERARQGCEPILIKYRHSWPESLACEELPVYDRGVCISPEAIVTADGADFPMDSSNGNCRGASSERCKCKPVRATQKTYFRNNYNYVIRAKVKEIKTKCHDVTAVVEVKEILKASLVNIPRETVNLYTSSGCLCPPLNVNEEYLIMGYEDEERSRLLLVEGSIAEKWKDRLGKKVKRWDMKLRHLGLNTSDSSHSDSTQSQKPGRNSNSRQARN
notes: Full-length bovine Frzb expressed from pcDNA3 (pFrzb) in COS7 cells, or translated in vitro with microsomal membranes, or from injected mRNA; also called Bfrzb; BFrzb

What was measured:
Xwnt-8 (Xenopus) = Xwnt-8 (Xenopus) (UniProt P28026); test: cell-based or functional assay
HA-tagged mouse Wnt-6 = molecular target: T1, HA-tagged mouse Wnt-6 (mouse, UniProt P22727 24-364, limits assumed); test: anti-HA immunoprecipitation of co-transfected COS7 lysates, immunoblot with N374-PEP
T1 construct: also called pLNCW6-HA; not shown: HA tag
T1 sequence (looked up): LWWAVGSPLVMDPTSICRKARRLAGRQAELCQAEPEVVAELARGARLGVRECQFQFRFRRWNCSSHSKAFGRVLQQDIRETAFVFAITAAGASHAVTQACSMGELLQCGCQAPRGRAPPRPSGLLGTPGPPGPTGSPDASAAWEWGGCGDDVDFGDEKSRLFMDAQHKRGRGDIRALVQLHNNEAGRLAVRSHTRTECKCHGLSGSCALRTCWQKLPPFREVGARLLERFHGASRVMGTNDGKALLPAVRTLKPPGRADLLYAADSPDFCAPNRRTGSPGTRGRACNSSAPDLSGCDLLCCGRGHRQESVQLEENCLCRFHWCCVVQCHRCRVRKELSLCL

HA-tagged mouse Wnt-3A = molecular target: T2, HA-tagged mouse Wnt-3A (mouse, UniProt P27467 19-352, limits assumed); test: as above
T2 construct: also called pLNCW3A-HA; not shown: HA tag
T2 sequence (P27467 19-352 limits assumed): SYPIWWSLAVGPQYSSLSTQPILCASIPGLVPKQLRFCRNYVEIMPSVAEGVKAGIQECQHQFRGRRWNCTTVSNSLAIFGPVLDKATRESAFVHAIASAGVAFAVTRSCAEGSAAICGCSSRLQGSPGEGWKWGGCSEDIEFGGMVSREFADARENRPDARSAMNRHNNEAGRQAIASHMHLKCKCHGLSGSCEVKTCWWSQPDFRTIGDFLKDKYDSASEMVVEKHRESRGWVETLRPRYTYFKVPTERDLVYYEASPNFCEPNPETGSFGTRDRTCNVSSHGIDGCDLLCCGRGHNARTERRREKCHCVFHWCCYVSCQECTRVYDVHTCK

HA-tagged mouse Wnt-5B = molecular target: T3, HA-tagged mouse Wnt-5B (mouse, UniProt P22726 18-359, limits assumed); test: as above
T3 construct: also called pLNCW5B-HA; not shown: HA tag
T3 sequence (looked up): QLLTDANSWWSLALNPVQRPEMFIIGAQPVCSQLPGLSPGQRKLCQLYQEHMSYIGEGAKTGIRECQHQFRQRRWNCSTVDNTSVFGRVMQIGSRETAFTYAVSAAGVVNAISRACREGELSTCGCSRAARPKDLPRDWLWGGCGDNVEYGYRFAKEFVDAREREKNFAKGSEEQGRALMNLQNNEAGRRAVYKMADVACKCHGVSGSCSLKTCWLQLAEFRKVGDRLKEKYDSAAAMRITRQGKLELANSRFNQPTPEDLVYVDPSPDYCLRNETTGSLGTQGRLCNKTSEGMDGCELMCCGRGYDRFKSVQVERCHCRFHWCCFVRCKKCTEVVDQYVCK

HA-tagged murine Wnt-1 [1] = molecular target: T4, HA-tagged murine Wnt-1 (mouse, UniProt P04426 28-370); test: as above
T4 construct: also called pLNCWnt1HA; pLNCW1-HA; not shown: hemagglutinin (HA) tag near the C-terminus
T4 sequence (looked up): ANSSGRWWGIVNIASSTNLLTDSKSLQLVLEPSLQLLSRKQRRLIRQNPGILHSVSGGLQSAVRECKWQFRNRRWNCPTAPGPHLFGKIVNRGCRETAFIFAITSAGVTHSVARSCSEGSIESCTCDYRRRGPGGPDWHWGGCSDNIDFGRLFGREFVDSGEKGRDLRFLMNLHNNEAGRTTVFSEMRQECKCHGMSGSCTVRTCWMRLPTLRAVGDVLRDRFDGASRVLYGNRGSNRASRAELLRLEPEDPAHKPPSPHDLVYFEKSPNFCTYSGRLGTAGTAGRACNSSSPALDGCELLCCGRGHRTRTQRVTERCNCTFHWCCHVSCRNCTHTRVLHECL

HA-tagged mouse Wnt-2 = molecular target: T5, HA-tagged mouse Wnt-2 (mouse, UniProt P21552 26-360, limits assumed); test: as above
T5 construct: also called pLNCW2-HA; not shown: HA tag
T5 sequence (looked up): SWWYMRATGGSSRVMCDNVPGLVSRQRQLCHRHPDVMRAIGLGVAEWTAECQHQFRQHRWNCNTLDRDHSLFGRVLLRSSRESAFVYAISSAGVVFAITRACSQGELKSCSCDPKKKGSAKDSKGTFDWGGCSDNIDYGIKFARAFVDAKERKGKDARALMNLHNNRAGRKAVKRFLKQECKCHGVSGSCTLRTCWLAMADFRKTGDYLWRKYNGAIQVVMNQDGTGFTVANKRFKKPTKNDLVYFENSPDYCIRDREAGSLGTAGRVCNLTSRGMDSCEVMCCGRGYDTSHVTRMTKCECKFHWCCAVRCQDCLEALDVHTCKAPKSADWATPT

HA-tagged mouse Wnt-7A = molecular target: T6, HA-tagged mouse Wnt-7A (mouse, UniProt P24383 32-349, limits assumed); test: as above
T6 construct: also called pLNCW7A-HA; not shown: HA tag
T6 sequence (looked up): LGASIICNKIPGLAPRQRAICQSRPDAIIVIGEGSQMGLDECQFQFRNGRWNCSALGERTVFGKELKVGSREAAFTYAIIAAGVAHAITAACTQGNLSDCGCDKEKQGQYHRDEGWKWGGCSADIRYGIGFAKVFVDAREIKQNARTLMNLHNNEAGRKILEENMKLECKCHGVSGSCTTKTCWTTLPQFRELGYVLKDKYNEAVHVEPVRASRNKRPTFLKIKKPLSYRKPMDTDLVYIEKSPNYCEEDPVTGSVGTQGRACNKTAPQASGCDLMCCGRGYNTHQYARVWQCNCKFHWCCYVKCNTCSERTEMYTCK

HA-tagged mouse Wnt-7B = molecular target: T7, HA-tagged mouse Wnt-7B (mouse, UniProt P28047 25-349, limits assumed); test: as above
T7 construct: also called pLNCW7B-HA; not shown: HA tag
T7 sequence (looked up): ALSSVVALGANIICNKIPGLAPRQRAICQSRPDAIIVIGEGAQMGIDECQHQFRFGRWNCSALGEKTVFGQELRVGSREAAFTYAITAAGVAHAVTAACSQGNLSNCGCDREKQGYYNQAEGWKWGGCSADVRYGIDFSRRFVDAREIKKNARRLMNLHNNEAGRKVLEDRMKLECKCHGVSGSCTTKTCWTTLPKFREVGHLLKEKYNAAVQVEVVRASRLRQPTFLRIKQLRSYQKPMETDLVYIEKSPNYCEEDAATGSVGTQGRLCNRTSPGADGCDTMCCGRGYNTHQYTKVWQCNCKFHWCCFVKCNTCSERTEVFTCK

HA-tagged mouse Wnt-4 = molecular target: T8, HA-tagged mouse Wnt-4 (mouse, UniProt P22724 23-351, limits assumed); test: as above
T8 construct: also called pLNCW4-HA; not shown: HA tag
T8 sequence (looked up): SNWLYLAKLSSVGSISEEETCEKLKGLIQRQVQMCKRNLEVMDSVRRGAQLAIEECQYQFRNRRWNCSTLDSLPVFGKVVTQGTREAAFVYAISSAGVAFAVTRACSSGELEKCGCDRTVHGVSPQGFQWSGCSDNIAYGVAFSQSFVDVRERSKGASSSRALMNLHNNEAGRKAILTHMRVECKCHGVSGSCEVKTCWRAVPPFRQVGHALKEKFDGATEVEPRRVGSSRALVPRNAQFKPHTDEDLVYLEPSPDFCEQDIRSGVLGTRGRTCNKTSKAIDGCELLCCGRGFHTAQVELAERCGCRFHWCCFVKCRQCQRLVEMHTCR

Xwnt-8^myc = molecular target: T9, Xwnt-8^myc (Xenopus, UniProt P28026 23-358, limits assumed); test: co-immunoprecipitation after in vitro cotranslation
T9 construct: also called myc-tagged XWnt-8
T9 sequence (looked up): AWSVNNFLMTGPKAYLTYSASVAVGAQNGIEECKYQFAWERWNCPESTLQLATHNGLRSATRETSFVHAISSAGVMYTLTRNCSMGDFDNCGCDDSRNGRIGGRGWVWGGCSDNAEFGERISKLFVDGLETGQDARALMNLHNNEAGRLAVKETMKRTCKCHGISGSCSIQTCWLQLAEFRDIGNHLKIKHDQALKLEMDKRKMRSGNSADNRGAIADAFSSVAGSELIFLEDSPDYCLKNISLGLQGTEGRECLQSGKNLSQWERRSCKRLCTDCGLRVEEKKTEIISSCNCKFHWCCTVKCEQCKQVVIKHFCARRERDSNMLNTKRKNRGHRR

bovine Frzb = molecular target: B1; test: as above
HA-tagged murine Wnt-1 [2] = molecular target: T4, HA-tagged murine Wnt-1; test: co-immunoprecipitation from lysates of co-transfected COS7 cells

Xenopus Frzb gave a head defects produced by CSKA-Xwnt-8 plasmid in dorsal blastomeres (64/80 embryos without Xfrzb) (embryos with head defects out of 81) (Xwnt-8 (Xenopus)) of 0.

B1: binds (HA-tagged mouse Wnt-6); binds (HA-tagged mouse Wnt-3A); binds (HA-tagged mouse Wnt-5B). B1: binds (HA-tagged murine Wnt-1 [1]); binds (HA-tagged mouse Wnt-2); binds (HA-tagged mouse Wnt-7A). B1: binds (HA-tagged mouse Wnt-7B); binds (HA-tagged mouse Wnt-4).

B2: β-lactamase (enzyme)
chain: HPETLVKVKDAEDQLGARVGYIELDLNSGKILESFRPEERFPMMSTFKVLLCGAVLSRVDAGQEQLGRRIHYSQNDLVEYSPVTEKHLTDGMTVRELCSAAITMSDNTAANLLLTTIGGPKELTAFLHNMGDHVTRLDRWEPELNEAIPNDERDTTMPAAMATTLRKLLTGELLTLASRQQLIDWMEADKVAGPLLRSALPAGWFIADKSGAGERGSRGIIAALGPDGKPSRIVVIYTTGSQATMDERNRQIAEIGASLIKHW
notes: also called β-lactamase control
B2: no binding (Xwnt-8^myc); no binding (bovine Frzb).

B3: Frzb deletion construct delta CRD (other)
chain: AACEPVVCISPEAIVTADGADFPMDSSNGNCRGASSERCKCKPVRATQKTYFRNNYNYVIRAKVKEIKTKCHDVTAVVEVKEILKASLVNIPRETVNLYTSSGCLCPPLNVNEEYLIMGYEDEERSRLLLVEGSIAEKWKDRLGKKVKRWDMKLRHLGLNTSDSSHSDSTQSQKPGRNSNSRQARN
notes: Made by deleting amino acids 39 to 145 of Frzb; also called CRD deletion; removal of the entire frizzled domain
B3: no binding (HA-tagged murine Wnt-1 [2]).
